Here are results for 39 molecules from article PMC10681739, “High-throughput data and modeling reveal insights into the mechanisms of cooperative DNA-binding by transcription factor proteins”.

The chains are these.
B1: Table S4 A row 1719 (dsDNA)
DNA 1: GGACCTACAGGAAGACTGACTAGCTTCCTTCGAGCC
DNA 2: GGCTCGAAGGAAGCTAGTCAGTCTTCCTGTAGGTCC
B2: Table S4 A row 2241 (dsDNA)
DNA 1: GCGGCCTCCAAACATCCTCCGGAAGCTGCCACCTAC
DNA 2: GTAGGTGGCAGCTTCCGGAGGATGTTTGGAGGCCGC
B3: Table S4 A row 1360 (dsDNA)
DNA 1: CAGAACGCACAGGAAGAGAGAGGAAACCAAGTGGGT
DNA 2: ACCCACTTGGTTTCCTCTCTCTTCCTGTGCGTTCTG
B4: Table S4 A row 110 (dsDNA)
DNA 1: TTGAGGGCTGGGCGGAAACGGAAAAGGCTAAGGGCC
DNA 2: GGCCCTTAGCCTTTTCCGTTTCCGCCCAGCCCTCAA
B5: Table S4 A row 2434 (dsDNA)
DNA 1: AGCAACAACGTCACTTCCCTTCCGGACCACAAGGGG
DNA 2: CCCCTTGTGGTCCGGAAGGGAAGTGACGTTGTTGCT
B6: Table S4 A row 1195 (dsDNA)
DNA 1: GGCGTCGCCGCCGGATTCGACTTCCTGACGTCAGGC
DNA 2: GCCTGACGTCAGGAAGTCGAATCCGGCGGCGACGCC
B7: Table S4 A row 502 (dsDNA)
DNA 1: CAGAGCAGCAGGAAACCATTATTTCCTCCTAGGTCT
DNA 2: AGACCTAGGAGGAAATAATGGTTTCCTGCTGCTCTG
B8: Table S4 A row 1655 (dsDNA)
DNA 1: CCGCGGGGTCCGGAACTGCTTGTTCCGGCAGTGGAA
DNA 2: TTCCACTGCCGGAACAAGCAGTTCCGGACCCCGCGG
B9: Table S4 A row 1584 (dsDNA)
DNA 1: TGTGTCGGACAGGAACTCGGCTTCCTTTGTGCCTCT
DNA 2: AGAGGCACAAAGGAAGCCGAGTTCCTGTCCGACACA
B10: Table S4 A row 677 (dsDNA)
DNA 1: ACAGCCCCGCCCGCTTCCTTCCTGCCTTCTCCACGT
DNA 2: ACGTGGAGAAGGCAGGAAGGAAGCGGGCGGGGCTGT
B11: Table S4 A row 2446 (dsDNA)
DNA 1: TCCCACCGTCCCATCCGCTACTTCCCGAAAACTCAA
DNA 2: TTGAGTTTTCGGGAAGTAGCGGATGGGACGGTGGGA
B12: Table S4 A row 700 (dsDNA)
DNA 1: TGGGTGACACTCCTTCCGCCTTCCGTGACCCCCATC
DNA 2: GATGGGGGTCACGGAAGGCGGAAGGAGTGTCACCCA
B13: Table S4 A row 2690 (dsDNA)
DNA 1: CGGGCCTCCGCCTTCCGCCCGGAACCCACCCCCGGG
DNA 2: CCCGGGGGTGGGTTCCGGGCGGAAGGCGGAGGCCCG
B14: Table S4 A row 548 (dsDNA)
DNA 1: GCGCACCGAAACGGAAGAACTTCCTTGATTAGCATA
DNA 2: TATGCTAATCAAGGAAGTTCTTCCGTTTCGGTGCGC
B15: Table S4 A row 2210 (dsDNA)
DNA 1: AAAACACCCGGATGGAGTCGCACTTCCCGAGTCTCG
DNA 2: CGAGACTCGGGAAGTGCGACTCCATCCGGGTGTTTT
B16: Table S4 A row 2527 (dsDNA)
DNA 1: GCCTGAAGCCGGAAGACTATAGCTTCCCGGCATGCA
DNA 2: TGCATGCCGGGAAGCTATAGTCTTCCGGCTTCAGGC
B17: Table S4 A row 2116 (dsDNA)
DNA 1: CCCAGCGGGCGAACTTCCTTTCCGCGCAACTCGCCC
DNA 2: GGGCGAGTTGCGCGGAAAGGAAGTTCGCCCGCTGGG
B18: Table S4 A row 1821 (dsDNA)
DNA 1: TAATCTGCAACTTCCCTGTTCTTCCTGTTAGATGTG
DNA 2: CACATCTAACAGGAAGAACAGGGAAGTTGCAGATTA
B19: Table S4 A row 1107 (dsDNA)
DNA 1: ACGGCCACCAGGAGGAAACTTCCTCTGAATCTTCCA
DNA 2: TGGAAGATTCAGAGGAAGTTTCCTCCTGGTGGCCGT
B20: Table S4 A row 1545 (dsDNA)
DNA 1: CTTCGAAGAGATTTCCTCCCGGAAAGGCCGAGCATT
DNA 2: AATGCTCGGCCTTTCCGGGAGGAAATCTCTTCGAAG
B21: Table S4 A row 2174 (dsDNA)
DNA 1: CAGCACGGGCCGCTTCCTTATCCGGTAAAGTGCGGG
DNA 2: CCCGCACTTTACCGGATAAGGAAGCGGCCCGTGCTG
B22: Table S4 A row 834 (dsDNA)
DNA 1: AAGGCAGGAGGATGTGCTCGCGGTTTCCTGTGATGT
DNA 2: ACATCACAGGAAACCGCGAGCACATCCTCCTGCCTT
B23: Table S4 A row 1993 (dsDNA)
DNA 1: ATCACGGGGCCCATCCGGGGAGGAAGGCGGCACAGG
DNA 2: CCTGTGCCGCCTTCCTCCCCGGATGGGCCCCGTGAT
B24: Table S4 A row 1239 (dsDNA)
DNA 1: GGGAGGCCCTGCAGGAAGCAGGATGTTGACCCGGAG
DNA 2: CTCCGGGTCAACATCCTGCTTCCTGCAGGGCCTCCC
B25: Table S4 A row 2556 (dsDNA)
DNA 1: CGCGCCGGACCGGAAAGCCGGGGAAGTGGCCGAGGA
DNA 2: TCCTCGGCCACTTCCCCGGCTTTCCGGTCCGGCGCG
B26: Table S4 A row 136 (dsDNA)
DNA 1: TCTTTTGATTGGGCTTCCTTCCTGTGTTTTCTCAGA
DNA 2: TCTGAGAAAACACAGGAAGGAAGCCCAATCAAAAGA
B27: Table S4 A row 382 (dsDNA)
DNA 1: AGGAGGGAGGGAGCTTCCTTCCTGTTCTCTGAAGGC
DNA 2: GCCTTCAGAGAACAGGAAGGAAGCTCCCTCCCTCCT
B28: Table S4 A row 1205 (dsDNA)
DNA 1: CTTAAACTGGAGGAAGTAAGTTTCCGTTAAAATGTG
DNA 2: CACATTTTAACGGAAACTTACTTCCTCCAGTTTAAG
B29: Table S4 A row 1712 (dsDNA)
DNA 1: CACGAGTCCAGGAAACAAGTGCTTCCTGCCTATGGG
DNA 2: CCCATAGGCAGGAAGCACTTGTTTCCTGGACTCGTG
B30: Table S4 A row 2604 (dsDNA)
DNA 1: AGGGGGCGGCGGCGGATGCCGGAAGAGTGCCCGCCC
DNA 2: GGGCGGGCACTCTTCCGGCATCCGCCGCCGCCCCCT
B31: Table S4 A row 356 (dsDNA)
DNA 1: TTGGGCCATTGTTTTCCTGCTTCCTCCCTTCAAGCC
DNA 2: GGCTTGAAGGGAGGAAGCAGGAAAACAATGGCCCAA
B32: Table S4 A row 2542 (dsDNA)
DNA 1: GGGAAACTCCACAGGAAACGGAAATGGTCTCTCCCA
DNA 2: TGGGAGAGACCATTTCCGTTTCCTGTGGAGTTTCCC
B33: Table S4 A row 1015 (dsDNA)
DNA 1: AGAAGCCACCACAGGAAACGGAAGAAGCCACCTCTG
DNA 2: CAGAGGTGGCTTCTTCCGTTTCCTGTGGTGGCTTCT
B34: Table S4 A row 1324 (dsDNA)
DNA 1: TTGAATGGACCTCATCCTGCTTCCTGCTCTTTGCAG
DNA 2: CTGCAAAGAGCAGGAAGCAGGATGAGGTCCATTCAA
B35: Table S4 A row 1809 (dsDNA)
DNA 1: AGGGCAGGATGCCAAGATGAACTACATTTCCTGGCA
DNA 2: TGCCAGGAAATGTAGTTCATCTTGGCATCCTGCCCT
B36: Table S4 A row 1213 (dsDNA)
DNA 1: ACAATATCCCAGGAAACAGACATCCGCGTGCTCGCG
DNA 2: CGCGAGCACGCGGATGTCTGTTTCCTGGGATATTGT
B37: Table S4 A row 180 (dsDNA)
DNA 1: AGCAATACCAGGAAATGTGTTGCTTCCTAAAGTGAT
DNA 2: ATCACTTTAGGAAGCAACACATTTCCTGGTATTGCT
B38: Table S4 A row 2151 (dsDNA)
DNA 1: AGGGCTCAGAGGCGGAAGCGGAAGCACATTCTGTCA
DNA 2: TGACAGAATGTGCTTCCGCTTCCGCCTCTGAGCCCT
B39: Table S4 A row 2126 (dsDNA)
DNA 1: ACGCGAAAGCCCGGATAGACTTCCGCGCAGGGGCGG
DNA 2: CCGCCCCTGCGCGGAAGTCTATCCGGGCTTTCGCGT

This data set addresses T1, ETS1 x2 (Homo sapiens, UniProt P14921).
T1 sequence: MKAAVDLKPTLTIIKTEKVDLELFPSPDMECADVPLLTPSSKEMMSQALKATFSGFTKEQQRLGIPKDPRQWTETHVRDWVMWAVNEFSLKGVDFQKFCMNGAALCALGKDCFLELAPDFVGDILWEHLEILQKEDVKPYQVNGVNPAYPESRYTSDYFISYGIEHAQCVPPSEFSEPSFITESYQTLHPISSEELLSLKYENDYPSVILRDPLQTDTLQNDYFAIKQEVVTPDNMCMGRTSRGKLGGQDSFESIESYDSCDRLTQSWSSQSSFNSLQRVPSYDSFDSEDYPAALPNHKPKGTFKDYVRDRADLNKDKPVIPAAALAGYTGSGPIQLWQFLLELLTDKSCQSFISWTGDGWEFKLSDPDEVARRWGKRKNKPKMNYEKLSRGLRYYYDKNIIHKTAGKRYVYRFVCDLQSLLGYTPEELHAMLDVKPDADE
Description: gcPBM; 10 nM ETS1. Particulars: tags: N-terminal GST (pDEST15), kept (PMC6008103); chain copies: 2; label: surface-attached array probe.
Take B1: the binding signal was 912 PBM fluorescence, median of replicate spots. To B2 belongs 2030 PBM fluorescence, median of replicate spots; to B3, 1100 PBM fluorescence, median of replicate spots. To B4 belongs 2150 PBM fluorescence, median of replicate spots; to B5, 3480 PBM fluorescence, median of replicate spots; to B6, 1940 PBM fluorescence, median of replicate spots. To B7 belongs 2360 PBM fluorescence, median of replicate spots; to B8, 1230 PBM fluorescence, median of replicate spots. In the case of B9, the binding signal was 1040 PBM fluorescence, median of replicate spots. Next, B10: 3660 PBM fluorescence, median of replicate spots; B11: 1300 PBM fluorescence, median of replicate spots; B12: 2820 PBM fluorescence, median of replicate spots. As to B13, the binding signal is 1830 PBM fluorescence, median of replicate spots. Next, B14: 2740 PBM fluorescence, median of replicate spots; B15: 1250 PBM fluorescence, median of replicate spots; B16: 3700 PBM fluorescence, median of replicate spots. To B17 belongs 2660 PBM fluorescence, median of replicate spots. To B18 belongs 2270 PBM fluorescence, median of replicate spots; to B19, 872 PBM fluorescence, median of replicate spots. In the case of B20, the binding signal was 1350 PBM fluorescence, median of replicate spots. As for B21, the binding signal was 2460 PBM fluorescence, median of replicate spots. To B22 belongs 1650 PBM fluorescence, median of replicate spots. To B23 belongs 950 PBM fluorescence, median of replicate spots. To B24 belongs 2610 PBM fluorescence, median of replicate spots. Regarding B25, the binding signal was 3050 PBM fluorescence, median of replicate spots. To B26 belongs 2710 PBM fluorescence, median of replicate spots. Next, B27: 3590 PBM fluorescence, median of replicate spots.

Consider B28, for which the binding signal was 1760 PBM fluorescence, median of replicate spots. To B29 belongs 3840 PBM fluorescence, median of replicate spots. To B30 belongs 1530 PBM fluorescence, median of replicate spots; to B31, 1590 PBM fluorescence, median of replicate spots; to B32, 4020 PBM fluorescence, median of replicate spots. To B33 belongs 3380 PBM fluorescence, median of replicate spots. In the case of B34, the binding signal was 3130 PBM fluorescence, median of replicate spots. Regarding B35, the binding signal was 1160 PBM fluorescence, median of replicate spots. Next, B36: 1480 PBM fluorescence, median of replicate spots; B37: 1370 PBM fluorescence, median of replicate spots. For B38, the binding signal was 3300 PBM fluorescence, median of replicate spots. Next, B39: 2080 PBM fluorescence, median of replicate spots.
